B1: DP IV activity of the human serum (protein)
chain: SRKTYTLTDYLKNTYRLKLYSLRWISDHEYLYKQENNILVFNAEYGNSSVFLENSTFDEFGHSINDYSISPDGQFILLEYNYVKQWRHSYTASYDIYDLNKRQLITEERIPNNTQWVTWSPVGHKLAYVWNNDIYVKIEPNLPSYRITWTGKEDIIYNGITDWVYEEEVFSAYSALWWSPNGTFLAYAQFNDTEVPLIEYSFYSDESLQYPKTVRVPYPKAGAVNPTVKFFVVNTDSLSSVTNATSIQITAPASMLIGDHYLCDVTWATQERISLQWLRRIQNYSVMDICDYDESSGRWNCLVARQHIEMSTTGWVGRFRPSEPHFTLDGNSFYKIISNEEGYRHICYFQIDKKDCTFITKGTWEVIGIEALTSDYLYYISNEYKGMPGGRNLYKIQLSDYTKVTCLSCELNPERCQYYSVSFSKEAKYYQLRCSGPGLPLYTLHSSVNDKGLRVLEDNSALDKMLQNVQMPSKKLDFIILNETKFWYQMILPPHFDKSKKYPLLLDVYAGPCSQKADTVFRLNWATYLASTENIIVASFDGRGSGYQGDKIMHAINRRLGTFEVEDQIEAARQFSKMGFVDNKRIAIWGWSYGGYVTSMVLGSGSGVFKCGIAVAPVSRWEYYDSVYTERYMGLPTPEDNLDHYRNSTVMSRAENFKQVEYLLIHGTADDNVHFQQSAQISKALVDVGVDFQAMWYTDEDHGIASSTAHQHIYTHMSHFIKQCFSLP
B2: porcine kidney DP IV, wild type (protein)
chain: DSRRTYTLTDYLKSTFRVKFYTLQWISDHEYLYKQENNILLFNAEYGNSSIFLENSTFDELGYSTNDYSVSPDRQFILFEYNYVKQWRHSYTASYDIYDLNKRQLITEERIPNNTQWITWSPVGHKLAYVWNNDIYVKNEPNLSSQRITWTGKENVIYNGVTDWVYEEEVFSAYSALWWSPNGTFLAYAQFNDTEVPLIEYSFYSDESLQYPKTVRIPYPKAGAENPTVKFFVVDTRTLSPNASVTSYQIVPPASVLIGDHYLCGVTWVTEERISLQWIRRAQNYSIIDICDYDESTGRWISSVARQHIEISTTGWVGRFRPAEPHFTSDGNSFYKIISNEEGYKHICHFQTDKSNCTFITKGAWEVIGIEALTSDYLYYISNEHKGMPGGRNLYRIQLNDYTKVTCLSCELNPERCQYYSASFSNKAKYYQLRCFGPGLPLYTLHSSSSDKELRVLEDNSALDKMLQDVQMPSKKLDVINLHGTKFWYQMILPPHFDKSKKYPLLIEVYAGPCSQKVDTVFRLSWATYLASTENIIVASFDGRGSGYQGDKIMHAINRRLGTFEVEDQIEATRQFSKMGFVDDKRIAIWGWSYGGYVTSMVLGAGSGVFKCGIAVAPVSKWEYYDSVYTERYMGLPTPEDNLDYYRNSTVMSRAENFKQVEYLLIHGTADDNVHFQQSAQLSKALVDAGVDFQTMWYTDEDHGIASNMAHQHIYTHMSHFLKQCFSLP

Target: peptides of the growth hormone releasing factor (GRF) family

| Protein | hydrolysis (MALDI-TOF MS, capillary zone electrophoresis) |
| --- | --- |
| B1 | All peptides were hydrolyzed by porcine DP IV, recombinant human DP IV or DP IV activity of the human serum |
| B2 | All peptides were hydrolyzed by porcine DP IV, recombinant human DP IV or DP IV activity of the human serum |

— US20060234940
